Results on one protein are retold here after patent US20060052292A1 (MAXYGEN APS MAXYGEN, published 2006).

This data set deals with the molecule itself. Put plainly: native Tris-Glycine gel, self-association (homotrimer) of apM1(82-244). As for the experimental part: After storage at −20° C. for several weeks the material was verified to have a heterogeneous appearance on a coomassie stained Novex 8-16% Tris-Glycine gel (Invitrogen; Cat. No. EC60452) run under native conditions (FIG. 4, lane 1). […] (In FIG. 4, M is SeeBlue Plus2).

B1: apM1(82-244), human adiponectin fragment expressed in CHO K1 cells (other)
chain: ETGVPGAEGPRGFPGIQGRKGEPGEGAYVYRSAFSVGLETYVTIPNMPIRFTKIFYNQQNHYDGSTGKFHCNIPGLYYFAYHITVYMKDVKVSLFKKDKAMLFTYDQYQENNVDQASGSVLLHLEVGDQVWLQVYGEGERNGLYADNDNDSTFTGFLLYHDTN
modifications: partial hydroxy-Pro at 86, 95 and 104; partial glyco-hydroxy-Lys at 101 (about 60%)
notes: Forms a calcium-stabilised homotrimer on native gels; On the Western blot the denatured monomer is detected
On to B1, for which the binding result is “binds”.
